What all share (conditions): none besides dye labels, binding temperature not given
Data set [1] deals with PARP2 (mouse). In words: EMSA. Background: Mobility shift assays separate free from complexed probe on a gel.
Data set [2] relates to PARP2 (mouse). Kind of data set: spFRET.
In data set [3] the test system is PARP2 (mouse). Kind of data set: EMSA. This is another data set of the same source.

For the substance NP nucleosome (603, 187 bp), the K half in data set [1] is 40 nM; in data set [2], 19 nM; in data set [3], 40 nM.

These data come from doi:10.1101/2023.10.17.562808.
